Measured values reported in publication PMC12445682 (Nucleic Acids Research, 2025).
Changes are numbered by the printed parent chain. Names and notes keep the numbering of the source.

Target: the molecule itself
Assay: SEC

B1: P2–OLD H332A (ATPase domain mutant), His-MBP-bdSUMO fusion (enzyme, phage P2, UniProt P13520 1-586, looked up)
chain: MTVRLASVSISNFRSCKSTSAILRPFTALVGYNNAGKSNIILAIKWLLDGSLISESDVYDPTHPVSVEGVIQGITDDTLSLLTEENQQKIAPFIIDGTLTFARRQEFNKETGKAKKSLDVYDGTTWKKNPGGIDGAISNIFPEPIHIPAMSDAVEDSTKCKNTTTIGKILSAIVSEIKQEHEEKFSKNISEIGKYLSHNGENRLESLNKIDSGVNKKVNQFFPDVSVKLHFPTPTLDEIFKSGTLKVFESREDEPVMRDISRFGHGTQRSIQMALIQYLAEIKKENSESKKSNTLIFIDEPELYLHPSAINSVRESLVTLSESGYQVIISTASASMLSAKHAANAIQVCKDSNGTIARKTISEKIEELYKSSSPQLHSAFTLSNSSYLLFSEEVLLVEGKTETNVLYALYKKINGHELNPSKICIVAVDGKGSLFKMSQIINAIGIKTRILADCDFLSNILLTEHKDLLSTECDNLLTALIESINSGELSLNTKVTTFESFKSISSKDFIKICNHEKTQKHIHEIHQKLKDNGIYIWKSGDIEAVYGFGKKQTEWDSLLDCLCDESKDVRAVIKKYDEMEDFIKWI
Question: Does B1 bind?
Answer: Result: binds

B2: P2–OLD H332A/E402A (ATPase and Toprim double mutant), His-MBP-bdSUMO fusion (enzyme, phage P2, UniProt P13520 1-586, looked up)
chain: B1 chain with E402A
Question: Does B2 bind?
Answer: Result: binds

B3: P2–OLD E402A (Toprim domain mutant), His-MBP-bdSUMO fusion (enzyme, phage P2, UniProt P13520 1-586, looked up)
chain: B1 chain with A332H, E402A
Question: Does B3 bind?
Answer: Result: binds
